“Also recorded” adds a separate entry of the source.
B1: SLC: secondary lymphoid-tissue chemokine, recombinant (protein)
chain: SDGGAQDCCLKYSQRKIPAKVVRSYRKQEPSLGCSIPAILFLPRKRSQAELCADPKELWVQQLMQHLDKTPSPQKPAQGCRKDRGASKTGKKGKGSKGCKRTERSQTPKGP

Key:
CCX CKR [1] = target: T1, CCX CKR (Homo sapiens, UniProt Q9NPB9); assay: Radioligand binding competition (DisplaceMax) to CCX CKR stable transfectants with Scatchard transformation
T1 construct: Full length CCX CKR expression constructs were made in pIRESpuro expression vector; expressed in transfected cells
T1 sequence (Q9NPB9 1-350): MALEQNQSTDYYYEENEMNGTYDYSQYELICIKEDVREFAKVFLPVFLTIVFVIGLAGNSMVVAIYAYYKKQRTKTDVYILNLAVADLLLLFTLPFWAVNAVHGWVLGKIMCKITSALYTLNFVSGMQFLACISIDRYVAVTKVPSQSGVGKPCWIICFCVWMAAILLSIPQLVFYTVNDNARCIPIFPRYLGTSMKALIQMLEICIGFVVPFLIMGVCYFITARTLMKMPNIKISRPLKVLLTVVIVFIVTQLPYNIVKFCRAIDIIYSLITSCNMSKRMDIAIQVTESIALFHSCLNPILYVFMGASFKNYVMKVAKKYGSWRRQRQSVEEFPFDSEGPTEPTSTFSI
Text: In one embodiment, binding is detected as described by Dairaghi et al., 1997, J. Biol. Chem. 272:28206–209 (incorporated by reference in its entirety for all purposes) substituting CCX CKR transfectants for the CCR3 transfectants). In one embodiment, binding is detected using the filter based technique described by Dairaghi et al., 1999, J. Biol. Chem. 274:2156 (incorporated by reference in its entirety for all purposes), e.g., as shown in FIG. 4. Briefly, this technology employs expanded, efficiency-maximized radioligand binding utilizing filtration protocols. In these assays, 1×10^5 CCXCKR-293 HEK cells are incubated with ^125I-labeled ELC (MIP3beta) (final concentration of ˜0.05 nM) in the presence of unlabeled chemokine for 3 h at 4° C. in 25 mM HEPES, 140 mM NaCl, 1 mM CaCl2, 5 mM MgCl2, and 0.2% bovine serum albumin, adjusted to pH 7.1. Reactions were aspirated onto PEI-treated GF/B glass filters using a cell harvester (Packard). Filters are washed twice (25 mM HEPES, 500 mM NaCl, 1 mM CaCl2 5 mM MgCl2, adjusted to pH 7.1) and scintillant (e.g., MicroScint 20; 50 μl) is added to dried filters and counted (e.g., using a Packard Topcount scintillation counter). The competition dose-response curves is analyzed by standard methods to determine IC50 values (e.g., using GraphPad Prism software (San Diego, Calif.)). Additionally, a Scatchard transformation can be used to estimate the receptor sites per cell (e.g., using WaveMetrics Igor software (Lake Oswego, Oreg.)).
(§1) Binding analysis was carried out using efficiency-maximized radioligand binding utilizing filtration protocols designated “Displace Max” (Dairaghi et al., 1999, J. Biol. Chem. 274:21569). In these assays, DisplaceMax employed the simultaneous interrogation of CCX CKR transfectants by >80 distinct purified chemokines in the ability to displace radiolabeled ELC or TECK, using the protocol described (Dairaghi et al., 1999, J. Biol. Chem. 274:21569).
The binding interactions identified in the primary screen were examined quantitatively by extensive radioligand binding competition to CCX CKR stable transfectants and Scatchard transformation of the displacement data (FIG. 4B). […] In each case, the murine versions of these chemokines also bound, and with even greater affinity; the apparent Kd's are listed in FIG. 4B. […] In similar experiments, murine CTACK bound the receptor with a Kd of ˜9 nM (not shown). CTACK is also referred to as CCL27, ALP, ILC, and ESkine.

CCX CKR [2] = target: T1, CCX CKR; assay: Preliminary chemotaxis analysis of CCX CKR transfectants; type: cell-based; conditions: preliminary chemotaxis analyses
CCX CKR [3] = target: T1, CCX CKR; assay: Adhesion of HEK293-CCX CKR cells to immobilized stalkokines and competition by soluble chemokines; type: cell-based; conditions: soluble recombinant chemokine 5–10 ug/ml
Text: “Stalkokine” technology was used to identify the chemokines bound by the CCX CKR. Briefly, immobilized native chemokines alone are incapable of capturing cells bearing cognate receptors (Imai et al., 1997, Cell 91:521). We have developed non-native chemokine structures, stalkokines, comprising chemokine moieties engineered as N-terminal attachments to extended modified mucins (Bazan et al., 1997, Nature 385:640). In one embodiment, stalkokines, harvested in the supernatants of HEK293 cells after transient transfection, are anchored to solid substrates via antibodies against carrier domains (e.g. poly-His epitopes) engineered to the carboxyl terminus, leaving the chemokine domain free to interact with candidate orphan receptors.
To determine ligand binding to CCX CKR, HEK293-CCX CKR cells were used to interrogate chemokine ‘stalkokines’ (SK), i.e., molecules in which discrete chemokine domains were engineered to be tethered to the end of an extended stalk structure. Stalkokines were interrogated using 8-well chamber slides coated first with anti-His anchoring antibody (10 ug/ml in PBS overnight at RT), which were washed and ‘blocked’ (2% FBS/0.5% BSA in PBS); treated with 250 ul of HEK293 cell stalkokine supernatants (1 hr at 37 C), and incubated with 500,000 HEK293-CCX CKR transfectants (1.5 hrs at RT). Inhibition of adhesion by competition with soluble chemokines was done by incubating cells with 5–10 ug/ml of recombinant chemokines. In all cases, nonadherent cells were removed by washing in PBS; remaining adherent cells were fixed with 1% glutaraldehyde, photoimaged and counted. As a primary screen this adhesion would reveal putative receptor-ligand interactions.

CCX CKR [4] = target: T1, CCX CKR; assay: Ligand induced internalization of Flag-CCX CKR in 293 cells (FACS); type: cell-based; conditions: 100 nM chemokine, 37° C., 15 or 45 minutes, 293 F-CCR10 cells
Protocol: 293 cells transfected with the Flag-CCX CKR fusion plasmid (i.e., “293 F-CCR10 cells;” see Example 3) were incubated at 37° C. with varying concentrations of chemokines (ELC, SLC, TECK, murine CTACK and MCP-4) for 15 or 45 minutes. Following incubation, the cells were washed and fixed with 3% paraformaldehyde for 15 minutes on ice. The cells were stained with anti-Flag M1 antibody, followed by a PE-conjugated anti-mouse secondary antibody. FACS analysis were then carried out to determine surface expression of the receptor.
Results: A reduction in antibody binding in the presence of ligand is an indication of ligand-induced internalization of the receptor.

CCX CKR [5] = target: T1, CCX CKR; assay: Ligand binding fingerprint: cold chemokines competing against 125I-ELC on CCX CKR stable transfectants; conditions: cold competitor at 200 nM; human and murine chemokines
Text: In order to rapidly and thoroughly define a given chemokine receptor's ligand binding fingerprint, we have established an approach to comprehensively profile chemokine receptors using a large array of purified chemokines and chemokine variants. We used this approach to confirm independently the interaction of ELC and other chemokines with CCX CKR. Employing radioligand binding of ^125-labeled-ELC or ^125-TECK to CCX CKR stable transfectants, chemokine specificity for the new receptor was determined.
as §1

CCX CKR [6] = target: T1, CCX CKR; assay: Homologous competition binding assay with radiolabeled chemokine on HEK293-CCX CKR cells; conditions: HEK293-CCX CKR cells versus wildtype HEK293 cells
Text: Furthermore ELC-SK mediated adhesion was abolished in the presence of soluble native ELC as a competitor (FIG. 3A, top row). […] Moreover, radiolabeled ELC was used in a traditional homologous competition assay in the presence of increasing concentrations of unlabeled ELC. […] Taken together, the stalkokine-based adhesion and radiolabeled ligand binding/homologous competition assays indicate that CCX CKR is a new chemokine receptor that bound a novel compliment of chemokines.

| Molecule | affinity of binding to CCX CKR, in words (CCX CKR [1]) | migration of CCX CKR transfectants in response to chemokine (CCX CKR [2]) | effect of soluble chemokine on ELC-SK mediated adhesion of HEK293-CCX CKR cells (CCX CKR [3]) | internalization of CCX CKR (CCX CKR [4]) | competition with 125I-labeled ELC binding to CCX CKR (fingerprint) (CCX CKR [5]) | binding in homologous competition of radiolabeled with unlabeled chemokine (CCX CKR [6]) |
| --- | --- | --- | --- | --- | --- | --- |
| ELC: EBI1 ligand chemokine, recombinant | high affinity | moderate migration | abolished; also recorded: ablation of adhesion | Internalization of the receptor was observed | bound well | significant binding |
| B1 | high affinity | moderate migration | significant reduction; also recorded: ablation of adhesion | Internalization of the receptor was observed | bound well | – |
